System: MipZ dimer
Experiment: Concentration dependence of the MipZ ATPase activity
Assay type: biochemical, Caulobacter crescentus
Experimental: Figure 2 Biochemical Analysis of MipZ Dimerization (A) ATPase cycle of MipZ. See the main text for details. (B and C) SPR analysis of MipZ self-association. MipZ or its mutant derivatives (3500 RU) were immobilized on a sensor chip and tested for homotypic interaction with the respective soluble protein (0.5 μM) in the presence of ADP (B) or ATP (C). After the binding phase, the chip was washed with buffer lacking protein and nucleotides to follow the dissociation reaction. The rate constants (koff) determined for the dissociation of the MipZ and MipZ-D42A complexes are 0.83 min^−1 and 0.067 min^−1, respectively. (D) Nucleotide-dependent dimerization of MipZ. MipZ-D42A was incubated with ADP (blue), ATP (orange) or ATPγS (red) and subjected to size exclusion chromatography. (E) ATPase activity of MipZ and its mutant derivatives. The graph gives the average turnover rate (kapp, average turnovers/min per molecule of MipZ) of the different MipZ derivatives (6 μM). Data represent the average of at least three independent experiments (±SD). Note that consistent with a critical role of the metal cofactor in dimerization and catalysis Mg^2+ was required for ATP turnover (Figure S2H). (F) Concentration dependence of the MipZ ATPase activity. The average turnover rate of MipZ (kapp) was determined at the indicated protein concentrations. Fitting of the data to a model that relates kapp to the relative abundance of dimers at the indicated MipZ concentrations (see the Experimental Procedures) yielded values of 8.0 μM (±1.2 μM) for the apparent equilibrium dissociation constant (K) of the MipZ dimer and 0.67 min^−1 (±0.03 min^−1) for the turnover number (kcat) of MipZ molecules in the dimeric state. The rate of dimer formation (kon ∼ kcat/K) derived from these values is 1.4 × 10^3 M^−1 s^−1. Data represent the mean of two independent experiments. See also Figure S2. TEXT PRINTED IN THE PICTURE: (F) MipZ: K = 8.0 μM; kcat = 0.67 min^-1 […]
According to the law of mass action, MipZ exists as a mixture of monomers (assumed to be largely in the ATP-bound state) and dimers, the equilibrium ratio of which depends on the total concentration of MipZ molecules in the reaction. […] Its average turnover rate (kapp) increased with rising protein concentrations and finally approached a plateau that likely reflects a situation in which all MipZ molecules have transitioned to the active, dimeric state. […]
β-galactosidase, MipZ, and FtsZ activity assays are detailed in the Supplemental Experimental Procedures. […]
obtained from crystals flash frozen in a solution of 95% 2 mM, sa mp le s were taken and analyzed for the amount ethanol/50 mM Tris (pH 8.5), and collected at ID23-2, of [α-32P]-GDP produced in the reaction as described ESRF (Grenoble, France). […]

B1: MipZ: P loop ATPase and cell division inhibitor of Caulobacter crescentus; hexahistidine-tagged in vitro, YFP fusion in FRAP (protein)
chain: MAETRVIVVGNEKGGAGKSTIAVHLVTALLYGGAKVAVIDLDLRQRTSARFFENRRAWLDNKKIELPEPLALNLSDNDVALAERPEEEQVAGFEAAFARAMAECDFILIDTPGGDSAITRMAHGRADLVVTPMNDSFVDFDMLGTVDPVTLELTKPSLYSLTVWEGRKQRALSGQRQAMDWVVLRNRLATTEARNRKRLEDRLNALAKRVGFRIGPGLRDRVIYRELFPFGLTIADLSPQVRPVPVSLQHLAARQELRALMHSLGLSAYSGETMLAAQ
modifications: left off: His6, end not stated, state not stated
notes: hexahistidine-tagged in vitro, YFP fusion in FRAP
turnover number (kcat) of MipZ molecules in the dimeric state (ATP hydrolysis, fit of kapp vs MipZ concentration): 0.0112 s⁻¹ | rate of dimer formation (kon ∼ kcat/K) (derived from K and kcat): 1400 M⁻¹ s⁻¹ | Kd (fit of kapp vs MipZ concentration, 2 mM ATP, read-out: apparent equilibrium dissociation constant (K) of the MipZ dimer): 8 µM | lifetime of the sandwich dimer (τ ∼ 1/kcat) (hydrolysis-driven dissociation): ~90 s

Reference: publication PMC3355305, “Localized Dimerization and Nucleoid Binding Drive Gradient Formation by the Bacterial Cell Division Inhibitor MipZ” (Molecular Cell, 2012)
